The numbers were not newly measured in PMC3815026, which cites them from elsewhere.

Series [1] has as its target MBL (Homo sapiens) (UniProt P11226). The series can be described thus: Scatchard.
Series [2] deals with C1q (Homo sapiens) (UniProt P02745). The series can be described thus: Scatchard.

pKd: −log10 of the molar value.

serglycin (myeloma cell-derived), sequence (P10124 28-158): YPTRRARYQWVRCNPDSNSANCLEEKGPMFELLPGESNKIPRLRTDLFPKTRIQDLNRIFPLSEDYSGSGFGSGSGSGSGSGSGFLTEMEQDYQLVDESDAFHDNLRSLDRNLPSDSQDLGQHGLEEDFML
MBL (Homo sapiens), sequence (P11226 21-248): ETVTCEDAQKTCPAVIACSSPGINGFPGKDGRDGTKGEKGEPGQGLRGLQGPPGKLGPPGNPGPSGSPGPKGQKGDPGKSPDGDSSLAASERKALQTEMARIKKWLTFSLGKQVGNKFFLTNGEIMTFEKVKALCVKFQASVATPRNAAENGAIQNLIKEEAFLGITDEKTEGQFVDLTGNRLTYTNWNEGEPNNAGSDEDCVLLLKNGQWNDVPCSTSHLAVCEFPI
C1q (Homo sapiens), sequence (P02745 23-245, chain 1 of 3): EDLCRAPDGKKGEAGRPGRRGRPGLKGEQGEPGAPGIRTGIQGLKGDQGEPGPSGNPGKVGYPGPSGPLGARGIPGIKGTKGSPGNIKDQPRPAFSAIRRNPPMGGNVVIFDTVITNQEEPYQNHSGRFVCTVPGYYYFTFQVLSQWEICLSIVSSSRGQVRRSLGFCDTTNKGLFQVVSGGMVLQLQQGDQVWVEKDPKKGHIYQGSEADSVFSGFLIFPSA
C1q (Homo sapiens), sequence (P02746 28-253, chain 2 of 3, further chain): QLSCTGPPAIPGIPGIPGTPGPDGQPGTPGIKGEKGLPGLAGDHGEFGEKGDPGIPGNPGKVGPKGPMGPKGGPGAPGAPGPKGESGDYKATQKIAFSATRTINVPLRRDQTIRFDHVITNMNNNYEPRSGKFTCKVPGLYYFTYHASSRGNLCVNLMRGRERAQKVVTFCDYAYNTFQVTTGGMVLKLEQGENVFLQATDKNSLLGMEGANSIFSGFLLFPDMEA
C1q (Homo sapiens), sequence (P02747 29-245, chain 3 of 3, further chain): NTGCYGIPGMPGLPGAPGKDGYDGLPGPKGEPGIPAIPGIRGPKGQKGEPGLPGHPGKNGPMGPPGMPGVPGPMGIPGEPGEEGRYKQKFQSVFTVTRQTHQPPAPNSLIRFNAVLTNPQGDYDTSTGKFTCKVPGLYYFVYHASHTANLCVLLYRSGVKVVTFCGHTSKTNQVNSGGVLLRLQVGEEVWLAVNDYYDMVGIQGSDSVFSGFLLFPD

For the substance “serglycin (myeloma cell-derived) (from UniProt P10124)”, the pKd in series [1] was 7.72; in series [2], 7.40.
